In general, EC50 refers to the concentration at which the effect is half-maximal.

The values that follow come from patent US20170151343A1 (AbbVie / Abbott, published 2017).

The target in assay [1] is T1, huLRRC15-Fc fusion protein (huLRRC15 ECD residues 22 to 526 of SEQ ID NO:3 fused to Fc) (human, UniProt Q8TF66 22-526).
T1 construct: Coated on the ELISA plate at 2 ug/mL; also called huLRRC15-ECD-Fc; huLRRC15 fusion ECD protein
T1 sequence: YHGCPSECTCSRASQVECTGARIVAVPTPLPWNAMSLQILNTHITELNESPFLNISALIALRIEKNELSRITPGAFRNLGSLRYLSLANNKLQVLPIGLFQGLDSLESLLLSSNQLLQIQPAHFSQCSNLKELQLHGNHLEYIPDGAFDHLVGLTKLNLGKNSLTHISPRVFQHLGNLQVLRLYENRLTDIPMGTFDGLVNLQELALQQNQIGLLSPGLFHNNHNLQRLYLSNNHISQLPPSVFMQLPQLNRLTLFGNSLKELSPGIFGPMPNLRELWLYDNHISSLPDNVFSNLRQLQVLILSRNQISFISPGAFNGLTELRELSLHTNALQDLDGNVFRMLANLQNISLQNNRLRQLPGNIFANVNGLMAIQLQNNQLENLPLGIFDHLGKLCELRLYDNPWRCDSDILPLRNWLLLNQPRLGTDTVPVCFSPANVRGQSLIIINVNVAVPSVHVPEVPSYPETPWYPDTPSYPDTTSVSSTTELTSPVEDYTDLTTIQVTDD
As to the kind of experiment: ELISA on coated huLRRC15-ECD-Fc. The procedure:
96-well Immulon 4HBX plates (Thermo, cat. #3855) were coated with 100 μL/well of this huLRRC15 fusion ECD protein at 2 μg/mL in carbonate-bicarbonate buffer (Thermo, cat.#28382) pH 9.4 and allowed to bind overnight at 4° C. Plates were washed three times with PBST and then incubated with various concentrations of antibodies in PBST+0.3% BSA at room temperature for one hour. […] Plates were washed three times in PBST and 100 μL of TMB (Surmodics BioFx cat.# TMBW-1000-01) was added to each well and incubated at RT until color developed (approximately 10 minutes). Reactions were stopped by the addition of 650 nm Stop Reagent for TMB (Surmodics BioFx, cat.# BSTP-0100-01), and optical density (OD) was read at 650 nm (Molecular Devices Versamax PLUS).
On the technique in general: ELISA stands for enzyme-linked immunosorbent assay.

Assay [2] addresses T2, human LRRC15 (leucine-rich repeat-containing protein 15), expressed on cells (human, UniProt Q8TF66 22-581).
T2 construct: Cells: U118MG (endogenous), HCT116-huLRRC15, 3T12-huLRRC15 transfectants, TGFbeta-treated A549, human BM-MSC; also called huLRRC15; endogenous huLRRC15
T2 sequence: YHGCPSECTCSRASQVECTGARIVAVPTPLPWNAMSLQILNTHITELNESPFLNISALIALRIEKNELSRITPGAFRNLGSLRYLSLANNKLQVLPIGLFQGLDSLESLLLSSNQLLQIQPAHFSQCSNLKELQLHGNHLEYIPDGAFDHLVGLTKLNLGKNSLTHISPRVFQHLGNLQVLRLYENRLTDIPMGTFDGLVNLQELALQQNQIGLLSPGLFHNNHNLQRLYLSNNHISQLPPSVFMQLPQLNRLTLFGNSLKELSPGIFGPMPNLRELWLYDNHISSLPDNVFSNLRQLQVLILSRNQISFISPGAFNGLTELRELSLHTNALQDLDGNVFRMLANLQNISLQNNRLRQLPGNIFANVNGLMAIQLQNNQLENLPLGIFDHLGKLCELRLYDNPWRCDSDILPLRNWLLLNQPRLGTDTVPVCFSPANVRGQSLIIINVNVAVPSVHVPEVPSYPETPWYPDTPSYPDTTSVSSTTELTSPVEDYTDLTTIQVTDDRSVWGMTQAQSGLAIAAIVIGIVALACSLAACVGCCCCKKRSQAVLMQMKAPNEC
The experiment in a line: flow cytometry on U118MG cells. An excerpt:
Isotype control antibodies (mouse or human) were used as appropriate.
(In flow cytometry, cells or beads pass a laser one at a time.)

Assay [3] concerns the target T2, human LRRC15 (leucine-rich …). The experiment in a line: cell-based or functional assay.
Assay [4] shares this target. As to the kind of experiment: flow cytometry competition on U118MG cells; unlabeled antibody titrated against muM25-AF488 at 1 ug/ml, GeoMean normalized to muM25-AF488 alone.

B1: muAD209.9.1 (antibody, V domains shown)
VH: QIQLVQSGPELKKPGETVKISCKASGFAITNFGMNWVKQAPGKGLKWMGWINLYTGEPTFADDFKGRFAFSLETSASTAYLQINNLKNEDTVIYFCARKGETYYRYDGFAYWGQGTLVTVSA
VL: DIVMTQAAPSVPVTPGESVSISCRSSKSLLHSNGNTHLYWFLQRPGQSPQLLIYRMSNLASGVPDRFSGSGSGTAFTLRISRVEAEDVGVYYCMQLLEYPYTFGGGTKLEIE
notes: Murine antibody; Compared with a muIgG2a isotype control
Regarding B1, the values for the EC50 in assay [1] and in assay [2] were 140 pM and 787 pM, respectively.

B2: huAD208.12.1 (antibody, V domains shown)
VH: EVQLVQSGAEVKKPGSSVKVSCKASGYTFTNYWMHWVKQAPGQGLEWIGMIHPNSGSTKHNEKFRGKATLTVDESTTTAYMELSSLRSEDTAVYYCARSDFGNYRWYFDVWGQGTTVTVSS
VL: EIVLTQSPATLSLSPGERATLSCRASQSSSNNLHWYQQKPGQAPRVLIKYVSQSISGIPARFSGSGSGTDFTLTISSLEPEDFAVYFCQQSNSWPFTFGQGTKLEIK
notes: Humanized full-length antibody
With B2, in assay [2], the binding result is “binds”.

B3: huAD208.4.1 (antibody, V domains shown)
VH: EVQLVQSGAEVKKPGSSVKVSCKASGFTFTDYYIHWVKQAPGQGLEWIGLVYPYIGGTNYNQKFKGKATLTVDTSTTTAYMEMSSLRSEDTAVYYCARGDNKYDAMDYWGQGTTVTVSS
VL: DIVLTQSPDSLAVSLGERATINCRASQSVSTSSYSYMHWYQQKPGQPPKLLIKYASSLESGVPDRFSGSGSGTDFTLTISSLQAEDVAVYYCEQSWEIRTFGGGTKVEIK
notes: Humanized full-length antibody, compared with a huIgG1 isotype control
Take B3: the EC50 was determined as 250 pM in assay [1] and 290 pM in assay [2].

B4: huAD208.14.1 (antibody, V domains shown)
VH: EVQLVQSGAEVKKPGSSVKVSCKASGFTFTDYYIHWVKQAPGQGLEWIGLVYPYIGGSSYNQQFKGKATLTVDTSTSTAYMELSSLRSEDTAVYYCARGDNNYDAMDYWGQGTTVTVSS
VL: DIVLTQSPDSLAVSLGERATISCRASQSVSTSTYNYMHWYQQKPGQPPKLLVKYASNLESGVPDRFSGSGSGTDFTLTISSLQAEDVAVYYCHHTWEIRTFGGGTKVEIK
notes: Humanized full-length antibody; Compared with a huIgG1 isotype control
For B4, the results for the EC50 in assay [1] and in assay [2] were 800 pM and 5250 pM, respectively.

B5: hu139.10 (antibody, V domains shown)
VH: EVQLVESGGGLVQPGGSLRLSCAVSGFSLTSYGVHWVRQATGKGLEWLGVIWAGGSTNYNSALMSRLTISKENAKSSVYLQMNSLRAGDTAMYYCATHMITEDYYGMDYWGQGTTVTVSS
VL: DIVMTQSPDSLAVSLGERATINCKSSQSLLNSRTRKNYLAWYQQKPGQSPKLLIYWASTRESGVPDRFSGSGSGTDFTLTISSLQAEDVAVYYCKQSYNLPTFGGGTKVEIK
notes: as for B4
As to B5, the EC50 in assay [1] was found to be 110 pM; in assay [2], 280 pM.

B6: huM25-mcMMAF-E2 (antibody, human IgG1, kappa)
heavy: not shown
light: DIQMTQSPSSLSASVGDRVTITCRASQDISNYLNWYQQKPGGAVKFLIYYTSRLHSGVPSRFSGSGSGTDYTLTISSLQPEDFATYFCQQGEALPWTFGGGTKVEIKRTVAAPSVFIFPPSDEQLKSGTASVVCLLNNFYPREAKVQWKVDNALQSGNSQESVTEQDSKDSTYSLSSTLTLSKADYEKHKVYACEVTHQGLSSPVTKSFNRGEC
modifications: mcMMAF (maleimidocaproyl monomethyl auristatin F) on cysteines of reduced interchain disulfides, two drugs per antibody (E2); which chain carries them is not stated
B6: the “in vitro killing of HCT116-huLRRC15 cells, EC50” value in assay [3] came out at 28 pM.

B7: huM25-vcMMAE-E2 (antibody, human IgG1, kappa)
heavy: not shown
light: DIQMTQSPSSLSASVGDRVTITCRASQDISNYLNWYQQKPGGAVKFLIYYTSRLHSGVPSRFSGSGSGTDYTLTISSLQPEDFATYFCQQGEALPWTFGGGTKVEIKRTVAAPSVFIFPPSDEQLKSGTASVVCLLNNFYPREAKVQWKVDNALQSGNSQESVTEQDSKDSTYSLSSTLTLSKADYEKHKVYACEVTHQGLSSPVTKSFNRGEC
modifications: vcMMAE (maleimidocaproyl-Val-Cit-PABA-monomethyl auristatin E) on cysteines of reduced interchain disulfides, two drugs per antibody (E2); which chain carries them is not stated
Turning to B7, in assay [3], the “in vitro killing of HCT116-huLRRC15 cells, EC50” value was 69 pM.

B8: huM25 (antibody, human IgG1, kappa)
heavy: not shown
light: DIQMTQSPSSLSASVGDRVTITCRASQDISNYLNWYQQKPGGAVKFLIYYTSRLHSGVPSRFSGSGSGTDYTLTISSLQPEDFATYFCQQGEALPWTFGGGTKVEIKRTVAAPSVFIFPPSDEQLKSGTASVVCLLNNFYPREAKVQWKVDNALQSGNSQESVTEQDSKDSTYSLSSTLTLSKADYEKHKVYACEVTHQGLSSPVTKSFNRGEC
notes: Humanized IgG1 kappa; also called huM25-AF647
B8: the EC50 in assay [1] is 260 pM; in assay [2] it was 498 pM. Besides, the “IC50 (read off the curve)” value in assay [4] was ~0.4 µg/mL.

B9: huM25-S239C-PBD-E2 (antibody, human IgG1, kappa)
heavy: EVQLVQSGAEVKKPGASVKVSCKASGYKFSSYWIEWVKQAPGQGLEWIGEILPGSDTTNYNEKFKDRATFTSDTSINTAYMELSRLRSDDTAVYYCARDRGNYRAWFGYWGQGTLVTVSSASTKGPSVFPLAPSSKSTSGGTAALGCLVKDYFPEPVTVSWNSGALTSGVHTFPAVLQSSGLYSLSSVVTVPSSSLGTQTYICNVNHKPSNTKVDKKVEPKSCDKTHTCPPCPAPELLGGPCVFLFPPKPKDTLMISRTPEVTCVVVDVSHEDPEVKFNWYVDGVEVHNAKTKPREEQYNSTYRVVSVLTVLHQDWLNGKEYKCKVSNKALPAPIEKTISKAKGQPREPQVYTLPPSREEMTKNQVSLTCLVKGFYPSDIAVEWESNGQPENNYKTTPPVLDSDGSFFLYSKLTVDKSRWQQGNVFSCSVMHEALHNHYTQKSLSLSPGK
light: DIQMTQSPSSLSASVGDRVTITCRASQDISNYLNWYQQKPGGAVKFLIYYTSRLHSGVPSRFSGSGSGTDYTLTISSLQPEDFATYFCQQGEALPWTFGGGTKVEIKRTVAAPSVFIFPPSDEQLKSGTASVVCLLNNFYPREAKVQWKVDNALQSGNSQESVTEQDSKDSTYSLSSTLTLSKADYEKHKVYACEVTHQGLSSPVTKSFNRGEC
modifications: vaPBD (Val-Ala pyrrolobenzodiazepine dimer synthon) on the engineered cysteine S239C, DAR2
Take B9: the “in vitro killing of A549-EMT transformed cells treated with TGFbeta, EC50” value in assay [3] came out at 10 pM.

B10: muAD210.40.9 (antibody, V domains shown)
VH: QVQLQQSGAELVRPGTSVKISCKASGYDFTNYWLGWVKQRPGHGLEWIGDIYPGGGNTYYNEKLKGKATLTADKSSSTAYIHLISLTSEDSSVYFCARWGDKKGNYFAYWGQGTLVTVSA
VL: QIVLTQSPAIMSASLGERVTMTCTASSSVYSSYLHWYQQKPGSSPKLWIYSTSNLASGVPGRFSGSGSGTSYSLTISSMEAEDAATYYCHQYHRSPTFGGGTKLEIK
notes: as for B1
Take B10: the response in assay [2] was half-maximal at 80 pM (EC50).
